# T1: human CEACAM18 on Freestyle 293F cells (human, UniProt A8MTB9 31-384)
# T1 construct: whole, on cells; Gene carries a FLAG-tag at the C-terminal; Transiently expressed
# T1 sequence (looked up): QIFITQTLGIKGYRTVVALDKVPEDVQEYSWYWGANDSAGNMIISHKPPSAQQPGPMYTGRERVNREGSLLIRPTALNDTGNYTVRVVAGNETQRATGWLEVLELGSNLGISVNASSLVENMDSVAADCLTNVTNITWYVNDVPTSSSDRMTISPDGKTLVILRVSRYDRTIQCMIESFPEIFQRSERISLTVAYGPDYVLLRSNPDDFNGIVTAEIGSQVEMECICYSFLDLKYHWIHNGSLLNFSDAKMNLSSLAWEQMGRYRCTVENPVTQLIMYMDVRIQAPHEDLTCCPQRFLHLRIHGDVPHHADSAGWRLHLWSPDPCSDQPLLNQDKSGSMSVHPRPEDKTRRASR
# T2: human CEACAM16 on Freestyle 293F cells (human, UniProt Q2WEN9 21-425)
# T2 construct: whole, on cells; Gene carries a FLAG-tag at the C-terminal; Transiently expressed
# T2 sequence (looked up): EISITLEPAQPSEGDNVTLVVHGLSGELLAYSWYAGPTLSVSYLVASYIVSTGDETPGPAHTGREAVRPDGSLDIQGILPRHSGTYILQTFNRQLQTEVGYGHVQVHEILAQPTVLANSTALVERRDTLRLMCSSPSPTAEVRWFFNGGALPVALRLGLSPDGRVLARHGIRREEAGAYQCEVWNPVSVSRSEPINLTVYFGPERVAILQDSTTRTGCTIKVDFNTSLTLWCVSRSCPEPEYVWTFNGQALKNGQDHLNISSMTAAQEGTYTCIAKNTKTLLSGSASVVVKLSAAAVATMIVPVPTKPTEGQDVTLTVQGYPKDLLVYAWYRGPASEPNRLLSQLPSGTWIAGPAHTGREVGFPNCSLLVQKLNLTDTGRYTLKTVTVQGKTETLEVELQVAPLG
# T3: human CEACAM8 on Freestyle 293F cells (human, UniProt P31997 35-320)
# T3 construct: whole, on cells; Gene carries a FLAG-tag at the C-terminal; Transiently expressed
# T3 sequence (looked up): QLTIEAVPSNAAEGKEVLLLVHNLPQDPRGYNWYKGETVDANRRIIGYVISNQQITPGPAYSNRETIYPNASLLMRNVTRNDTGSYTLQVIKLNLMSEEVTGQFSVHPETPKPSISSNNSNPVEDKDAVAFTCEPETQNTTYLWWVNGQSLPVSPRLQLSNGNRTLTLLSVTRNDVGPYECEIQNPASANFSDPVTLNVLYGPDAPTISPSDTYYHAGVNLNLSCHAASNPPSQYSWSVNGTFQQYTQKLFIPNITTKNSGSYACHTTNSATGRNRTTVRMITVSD
# T4: human CEACAM1 on Freestyle 293F cells (human, UniProt P13688 35-526)
# T4 construct: whole, on cells; Gene carries a FLAG-tag at the C-terminal; Transiently expressed
# T4 sequence (looked up): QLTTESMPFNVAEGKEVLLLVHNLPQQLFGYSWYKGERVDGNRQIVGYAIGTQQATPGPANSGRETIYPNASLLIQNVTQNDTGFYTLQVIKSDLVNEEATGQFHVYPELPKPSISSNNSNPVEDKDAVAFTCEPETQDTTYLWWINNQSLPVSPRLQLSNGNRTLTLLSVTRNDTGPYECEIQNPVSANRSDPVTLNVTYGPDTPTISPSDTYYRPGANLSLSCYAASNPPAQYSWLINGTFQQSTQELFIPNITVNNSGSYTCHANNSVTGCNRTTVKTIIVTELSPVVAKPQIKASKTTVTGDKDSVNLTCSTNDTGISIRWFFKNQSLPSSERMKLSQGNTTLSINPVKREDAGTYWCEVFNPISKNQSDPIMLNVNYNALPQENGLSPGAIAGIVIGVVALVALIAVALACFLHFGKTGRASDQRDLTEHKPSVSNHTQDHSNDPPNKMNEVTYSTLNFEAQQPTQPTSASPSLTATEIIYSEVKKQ
# T5: human CEACAM6 on Freestyle 293F cells (human, UniProt P40199 35-320)
# T5 construct: whole, on cells; Gene carries a FLAG-tag at the C-terminal; Transiently expressed; also called CD66c
# T5 sequence (looked up): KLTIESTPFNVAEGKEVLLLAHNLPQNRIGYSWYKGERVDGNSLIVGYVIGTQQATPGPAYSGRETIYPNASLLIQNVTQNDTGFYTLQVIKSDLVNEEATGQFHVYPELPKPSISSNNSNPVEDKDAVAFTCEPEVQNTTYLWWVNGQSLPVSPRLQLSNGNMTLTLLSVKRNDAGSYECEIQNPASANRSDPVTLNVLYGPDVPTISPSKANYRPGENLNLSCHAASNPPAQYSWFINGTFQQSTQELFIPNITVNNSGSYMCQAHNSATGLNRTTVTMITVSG
# T6: human CEACAM7 on Freestyle 293F cells (human, UniProt Q14002 36-242)
# T6 construct: whole, on cells; Gene carries a FLAG-tag at the C-terminal; Transiently expressed
# T6 sequence (looked up): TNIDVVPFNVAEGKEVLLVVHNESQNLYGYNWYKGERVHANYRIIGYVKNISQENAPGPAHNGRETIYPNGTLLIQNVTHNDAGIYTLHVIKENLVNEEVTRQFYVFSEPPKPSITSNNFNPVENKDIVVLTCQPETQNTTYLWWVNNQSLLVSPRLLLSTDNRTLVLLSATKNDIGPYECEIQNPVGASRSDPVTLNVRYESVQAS
# T7: Human IgG1 Fc-fused CEACAM5 A3B3 (residues 501-682) (human, UniProt P06731 501-682)
# T7 construct: Expressed in Freestyle HEK cells and N-glycosylated; also called CEACAM5 A3B3-Fc; A3B3-Fc; not shown: human immunoglobulin 1 Fc region (hIgG1 Fc)
# T7 sequence: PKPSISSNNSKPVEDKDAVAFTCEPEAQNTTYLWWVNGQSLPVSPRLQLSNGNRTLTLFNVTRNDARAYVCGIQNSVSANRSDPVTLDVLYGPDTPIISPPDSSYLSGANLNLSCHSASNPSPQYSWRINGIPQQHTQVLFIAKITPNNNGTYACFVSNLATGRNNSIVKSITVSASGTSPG
# T8: Fc-fused CEACAM5 A3B3 domain N580Q mutant (human, UniProt P06731 501-682)
# T8 construct: N-glycosylation site mutant of A3B3-Fc; not shown: human IgG1 Fc carrier and its junction to A3B3
# T8 chain: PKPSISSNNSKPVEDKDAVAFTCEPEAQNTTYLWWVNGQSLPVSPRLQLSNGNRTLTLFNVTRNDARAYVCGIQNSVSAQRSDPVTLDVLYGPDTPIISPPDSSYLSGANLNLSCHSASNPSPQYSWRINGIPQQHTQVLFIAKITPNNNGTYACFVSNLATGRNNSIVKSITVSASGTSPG
# T9: Human IgG1 Fc-fused CEACAM5 A2B2 (residues 323-500) (human, UniProt P06731 323-500)
# T9 construct: also called CEACAM5 A2B2-Fc; A2B2 domains of CEACAM5; not shown: human immunoglobulin 1 Fc region (hIgG1 Fc)
# T9 chain: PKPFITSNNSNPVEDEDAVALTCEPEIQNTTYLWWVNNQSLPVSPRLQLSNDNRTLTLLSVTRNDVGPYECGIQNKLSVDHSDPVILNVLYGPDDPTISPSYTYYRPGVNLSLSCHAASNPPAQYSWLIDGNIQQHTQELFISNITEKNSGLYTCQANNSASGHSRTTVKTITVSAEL
# T10: Human IgG1 Fc-fused CEACAM5 A1B1 (residues 145-322) (human, UniProt P06731 145-322)
# T10 construct: also called CEACAM5 A1B1-Fc; A1B1 domains of CEACAM5; not shown: human immunoglobulin 1 Fc region (hIgG1 Fc)
# T10 sequence: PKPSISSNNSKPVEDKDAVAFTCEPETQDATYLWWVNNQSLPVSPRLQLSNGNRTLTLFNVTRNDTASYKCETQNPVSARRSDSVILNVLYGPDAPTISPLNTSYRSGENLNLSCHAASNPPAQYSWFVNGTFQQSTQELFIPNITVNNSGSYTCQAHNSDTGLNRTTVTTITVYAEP
# T11: Human IgG1 Fc-fused CEACAM5 A3B3 (residues 501-682) (UniProt P06731 501-682)
# T11 chain: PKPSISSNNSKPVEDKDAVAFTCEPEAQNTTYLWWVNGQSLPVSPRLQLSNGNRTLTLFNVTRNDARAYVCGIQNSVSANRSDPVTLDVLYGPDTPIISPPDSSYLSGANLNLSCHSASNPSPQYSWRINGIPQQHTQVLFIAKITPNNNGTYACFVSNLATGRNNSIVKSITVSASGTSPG
# B1: Clone #1 Fab (1G9 Fab) (Fab, V domains shown)
# VH: QVQLVESGGGLVKPGGSLRLSCAASGFTFSDYYMSWIRQAPGKGLEWVSYISSSGSTIYYADSVKGRFTISRDNAKNSLYLQMNSLRAEDTAVYYCARIGRYSYGLRSYYYYGMDVWGQGTTVTVSS
# VL: DIQMTQSPSSLSASVGDRVTITCRASQSISSYLNWYQQKPGKAPKLLIYAASSLQSGVPSRFSGSGSGTDFTLTISSLQPEDFGVYYCMQALQTPVTFGQGTRLEIKR
# notes: Human Fab from a phage library (IGHV3-11 / IGKV1-39 frameworks), made in E. coli and purified on Ni-NTA
# Assays:
# [1] = biological target: T1, human CEACAM18 on Freestyle 293F cells; test: flow cytometry on transfected HEK293F cells
# Protocol: (§1) To determine the cell surface expression levels of CEACAM5 or CEACAM family proteins, the cells were stained with PE-conjugated anti-CEACAM5 IgG1 (Miltenyi Biotec, 130-114-217) or PE-conjugated anti-FLAG mouse antibody (Miltenyi Biotec, 130-101-576). To confirm cell surface binding of selected antibodies, cells were treated with a hIgG1 having the CDRs of Clone #1, a hIgG1 having the CDRs of Clone #2, or the Clone #1 Fab for 1 hour at 4° C. and then stained with Alexa647-conjugated goat anti-human IgG (Invitrogen, A21445) or FITC conjugated-goat anti-human kappa light chain (Invitrogen, A18854) for 0.5 hours at 4° C. For the internalization assays, cells (1×10⁵ cells/well in 96-well plate) were treated with Alexa488-labeled antibodies for durations between 0 and 30 hours. After incubation of antibodies, cells were washed with cold PBS, and then the remained cell surface binding antibodies were analyzed using Alexa488 fluorescence. For CAR expression on anti-CEACAM5 CAR-T cells, CD4⁺ T or CD8⁺ T cells were gated using APC-conjugated anti-human CD4 antibody (ebioscience, 17-0049-42) and eFluor450-conjugated anti-human CD8 antibody (ebioscience, 48-0088-42), and CAR expression was examined using FITC-labeled recombinant Protein L (Acrobiosystems, RPL-PF141).
# [2] = biological target: T2, human CEACAM16 on Freestyle 293F cells; test: flow cytometry on transfected HEK293F cells
# Protocol: as §1
# [3] = biological target: T3, human CEACAM8 on Freestyle 293F cells; test: flow cytometry on transfected HEK293F cells
# Protocol: as §1
# [4] = biological target: T4, human CEACAM1 on Freestyle 293F cells; test: flow cytometry on transfected HEK293F cells
# Protocol: as §1
# [5] = biological target: T5, human CEACAM6 on Freestyle 293F cells; test: flow cytometry on transfected HEK293F cells
# Protocol: as §1
# [6] = biological target: T6, human CEACAM7 on Freestyle 293F cells; test: flow cytometry on transfected HEK293F cells
# Protocol: as §1
# [7] = biological target: T12, human CEACAM21 on Freestyle 293F cells (human, UniProt Q3KPI0 35-293); test: flow cytometry on transfected HEK293F cells
# T12 construct: whole, on cells; Gene carries a FLAG-tag at the C-terminal; Transiently expressed
# Protocol: as §1
# [8] = biological target: T13, human CEACAM20 on Freestyle 293F cells (human, UniProt Q6UY09 31-596); test: flow cytometry on transfected HEK293F cells
# T13 construct: whole, on cells; Gene carries a FLAG-tag at the C-terminal; Transiently expressed
# Protocol: as §1
# [9] = biological target: T7, Human IgG1 Fc-fused CEACAM5 A3B3 …; test: indirect ELISA, antigen coated on plate
# Protocol: (§2) Binding and specificity of scFv, Fab, or IgG to CEACAM related proteins were analyzed through indirect ELISA. Briefly, Fc-fused CEACAM5 polypeptides, CEACAM6 polypeptides, extra-cellular domain of CEACAM5 (R&D systems, 4128-CM), CEACAM6 (R&D systems, 3934-CM), or cynomolgus CEACAM5 (Sino biological, 90891-C08H) was coated on a 96 well plate (Corning, 3690) at 200 ng/well (50 μL volume) in PBS for 2 hours at room temperature. Blocking was carried out with 3% BSA in PBS for overnight at 4° C. Next day, various concentration of scFv, Fab, or IgG was treated to antigen coated plates and incubated for 1 hour at room temperature. After washing three times, anti-FLAG mouse antibody (M2 clone)-HRP conjugated (Sigma, A8592, 1:3000 dilution) or anti-human kappa goat antibody-HRP conjugated (Invitrogen, A18853, 1:3000 dilution) was treated for binding detection. Same volume of TMB (Thermo, PI34028) was added as a substrate, and then enzymatic reaction was stopped by adding of 2N sulfonic acid. The monomeric Fc fused-CD16a (Fc γRIIIa), CD64 (Fc γRIa) and CD32 (Fc γRIIa) were obtained from Prof. Wei Li (University of Pittsburgh, PA) and used for Fc gamma receptor (FcγR) binding test.
# [10] = biological target: T8, Fc-fused CEACAM5 A3B3 domain N580Q …; test: indirect ELISA
# Protocol: as §2, with “test. […]” for “test.”
# [11] = biological target: T7, Human IgG1 Fc-fused CEACAM5 A3B3 …; test: SPR (BIAcore)
# [12] = biological target: T9, Human IgG1 Fc-fused CEACAM5 A2B2 …; test: indirect ELISA / BIAcore
# [13] = biological target: T10, Human IgG1 Fc-fused CEACAM5 A1B1 …; test: indirect ELISA / BIAcore
# [14] = biological target: T11, Human IgG1 Fc-fused CEACAM5 A3B3 …; test: SPR (Biacore)
# T13 sequence (Q6UY09 31-596): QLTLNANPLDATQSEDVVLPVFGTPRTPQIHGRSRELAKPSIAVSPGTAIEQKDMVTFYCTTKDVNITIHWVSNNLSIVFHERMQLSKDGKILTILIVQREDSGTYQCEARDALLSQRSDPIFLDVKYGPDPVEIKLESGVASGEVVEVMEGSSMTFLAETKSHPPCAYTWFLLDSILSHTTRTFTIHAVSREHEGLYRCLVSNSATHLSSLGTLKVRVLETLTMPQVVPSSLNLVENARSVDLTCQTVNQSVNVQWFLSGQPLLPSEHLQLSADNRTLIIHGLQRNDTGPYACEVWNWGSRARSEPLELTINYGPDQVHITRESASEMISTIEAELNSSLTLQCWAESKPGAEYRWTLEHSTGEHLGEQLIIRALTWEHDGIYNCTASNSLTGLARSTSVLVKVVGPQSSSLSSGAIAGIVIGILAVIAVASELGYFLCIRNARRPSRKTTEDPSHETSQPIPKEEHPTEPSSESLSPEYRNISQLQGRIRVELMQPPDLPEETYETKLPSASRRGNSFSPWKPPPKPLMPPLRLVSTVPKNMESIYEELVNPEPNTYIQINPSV
# T12 sequence (Q3KPI0 35-293): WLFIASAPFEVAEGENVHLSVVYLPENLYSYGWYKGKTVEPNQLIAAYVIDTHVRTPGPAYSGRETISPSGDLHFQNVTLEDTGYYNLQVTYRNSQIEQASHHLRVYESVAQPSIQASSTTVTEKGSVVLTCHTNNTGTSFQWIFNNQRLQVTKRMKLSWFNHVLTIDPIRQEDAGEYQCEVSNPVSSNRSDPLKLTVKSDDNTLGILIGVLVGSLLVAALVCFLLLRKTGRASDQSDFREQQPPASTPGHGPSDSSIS
binder,measurement,setting,value
B1,binding result,[1],no binding
same,binding result,[2],no binding
same,binding result,[3],no binding
same,binding result,[4],no binding
same,binding result,[5],no binding
same,binding result,[6],no binding
same,binding result,[7],no binding
same,binding result,[8],no binding
same,EC50,[9],~6 nM
same,binding result,[10],binds
same,Kd,[11],3 nM
same,binding result,[12],no binding
same,binding result,[13],no binding
same,Kd,[14],1.91 nM

# Source: patent US20240166760A1 (UNIVERSITY OF PITTSBURGH OF THE COMMONWEALTH SYSTEM OF …, published 2024)
